Results reported in PMC4840175, “A Substrate Mimic Allows High-Throughput Assay of the FabA Protein and Consequently the Identification of a Novel Inhibitor of Pseudomonas aeruginosa FabA” (Journal of Molecular Biology, 2016).

Substrate: CCCCCCCC(O)CC(=O)SCCNC(C)=O
Assay: enzyme turnover, coupled PaFabA-PaFabV fluorescence assay (estimated KM) and direct UV assay
Type: biochemical, Pseudomonas aeruginosa

B1: PaFabA (3-hydroxyacyl-[ACP] dehydratase) (Pseudomonas aeruginosa PAO1) (protein)
chain: MTKQHAFTREDLLRCSRGELFGPGNAQLPAPNMLMIDRIVHISDVGGKYGKGELVAELDINPDLWFFACHFEGDPVMPGCLGLDAMWQLVGFYLGWQGNPGRGRALGSGEVKFFGQVLPTAKKVTYNIHIKRTINRSLVLAIADGTVSVDGREIYSAEGLRVGLFTSTDSF
Km: 400 µM
